Measured values: patent publication US20150346192A1 (Sanofi, published 2015)

Experiments:
[1] = biological target: T1, metastasis associated 1 family, member 2 (rat); assay: IP of RBL-2H3 lysate on nickel beads, MS/MS ProtScore
T1 construct: Endogenous protein from RBL-2H3 (rat) lysate
Procedure: (§1) They were used to immunoprecipitate protein lysates from RBL-2H3 cells stimulated or not beforehand via the FcεRI. After the immunoprecipitations, the beads were washed in low stringency conditions in order to preserve low affinity bindings.
(§2) After digestion with trypsin, the bands were analysed by mass spectrometry MS/MS using the MALDI-TOF (matrix-assisted laser desorption/ionization time of flight) technique.
(§3) The Mass spectrometer which was used is composed of a laser which ionises previously digested peptides; an analyser which measures the mass/charge (m/z) ratios of the ionised peptides as a function of their flight time; and a detector which records the number of ions for each given m/z ratio. The obtained spectra of m/z ratios allow the identification of peptides and thus proteins present in the samples, by interrogating the Genebank rat database, as well as the mouse database for comparison (the mice Genebank data being more complete). A confidence index or ProtScore is attributed for each protein as a function of the number of identified peptides which are part of its sequence and of the nature of these peptides (composition, size). A ProtScore higher than 3 corresponds to 0.1% probability of identifying a false positive, in other words the probability that this protein is present is 99.9%.

[2] = biological target: T2, guanine nucleotide binding protein-like 2 (rat); assay: as above
T2 construct: Endogenous protein from RBL-2H3 (rat) lysate
Procedure: as §1, §2, §3

[3] = biological target: T3, ATP-binding cassette sub-family F member 1 (rat, UniProt Q6MG08 1-839); assay: as above
T3 construct: Endogenous protein from lysates of the rat mast cell line RBL-2H3; also called ABCF1; ABCF1 protein
T3 sequence (Q6MG08 whole entry): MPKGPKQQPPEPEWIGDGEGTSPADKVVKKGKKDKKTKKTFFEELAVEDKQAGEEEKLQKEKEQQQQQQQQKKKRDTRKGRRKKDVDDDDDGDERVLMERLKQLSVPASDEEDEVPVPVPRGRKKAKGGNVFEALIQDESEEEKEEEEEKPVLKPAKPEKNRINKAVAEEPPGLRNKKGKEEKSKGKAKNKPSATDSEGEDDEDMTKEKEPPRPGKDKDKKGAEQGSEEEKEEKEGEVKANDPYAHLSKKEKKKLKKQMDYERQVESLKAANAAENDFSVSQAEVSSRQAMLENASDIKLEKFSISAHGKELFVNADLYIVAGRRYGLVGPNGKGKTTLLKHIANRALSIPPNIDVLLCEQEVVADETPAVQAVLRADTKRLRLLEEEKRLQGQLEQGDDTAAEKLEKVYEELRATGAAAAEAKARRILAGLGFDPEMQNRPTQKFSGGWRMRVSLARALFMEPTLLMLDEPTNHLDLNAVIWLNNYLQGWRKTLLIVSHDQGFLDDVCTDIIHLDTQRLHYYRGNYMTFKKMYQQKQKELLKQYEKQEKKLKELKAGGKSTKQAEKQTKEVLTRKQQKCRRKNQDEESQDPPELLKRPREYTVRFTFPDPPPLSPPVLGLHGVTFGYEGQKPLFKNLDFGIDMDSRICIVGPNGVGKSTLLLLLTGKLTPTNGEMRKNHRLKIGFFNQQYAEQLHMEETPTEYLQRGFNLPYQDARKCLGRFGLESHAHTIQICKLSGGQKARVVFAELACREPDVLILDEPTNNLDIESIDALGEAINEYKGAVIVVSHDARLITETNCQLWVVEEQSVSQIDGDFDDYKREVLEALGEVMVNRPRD
Procedure: as §1, §2, §3

rCG30986, isoform CRA_a = biological target: T4, rCG30986, isoform CRA_a (rat); assay: as above
T4 construct: Endogenous protein from RBL-2H3 (rat) lysate
Procedure: as §1, §2, §3

CTP synthase = biological target: T5, CTP synthase (rat); assay: as above
T5 construct: Endogenous protein from RBL-2H3 (rat) lysate
Procedure: as §1, §2, §3

[4] = biological target: T6, fragile X mental retardation 1 (rat); assay: as above
T6 construct: Endogenous protein from RBL-2H3 (rat) lysate
Procedure: as §1, §2, §3

[5] = biological target: T7, lysine (K)-specific demethylase 1 (rat); assay: as above
T7 construct: Endogenous protein from RBL-2H3 (rat) lysate
Procedure: as §1, §2, §3

[6] = biological target: T8, CCCH-type zinc finger antiviral protein (rat); assay: as above
T8 sequence (Q8K3Y6 2-776, looked up): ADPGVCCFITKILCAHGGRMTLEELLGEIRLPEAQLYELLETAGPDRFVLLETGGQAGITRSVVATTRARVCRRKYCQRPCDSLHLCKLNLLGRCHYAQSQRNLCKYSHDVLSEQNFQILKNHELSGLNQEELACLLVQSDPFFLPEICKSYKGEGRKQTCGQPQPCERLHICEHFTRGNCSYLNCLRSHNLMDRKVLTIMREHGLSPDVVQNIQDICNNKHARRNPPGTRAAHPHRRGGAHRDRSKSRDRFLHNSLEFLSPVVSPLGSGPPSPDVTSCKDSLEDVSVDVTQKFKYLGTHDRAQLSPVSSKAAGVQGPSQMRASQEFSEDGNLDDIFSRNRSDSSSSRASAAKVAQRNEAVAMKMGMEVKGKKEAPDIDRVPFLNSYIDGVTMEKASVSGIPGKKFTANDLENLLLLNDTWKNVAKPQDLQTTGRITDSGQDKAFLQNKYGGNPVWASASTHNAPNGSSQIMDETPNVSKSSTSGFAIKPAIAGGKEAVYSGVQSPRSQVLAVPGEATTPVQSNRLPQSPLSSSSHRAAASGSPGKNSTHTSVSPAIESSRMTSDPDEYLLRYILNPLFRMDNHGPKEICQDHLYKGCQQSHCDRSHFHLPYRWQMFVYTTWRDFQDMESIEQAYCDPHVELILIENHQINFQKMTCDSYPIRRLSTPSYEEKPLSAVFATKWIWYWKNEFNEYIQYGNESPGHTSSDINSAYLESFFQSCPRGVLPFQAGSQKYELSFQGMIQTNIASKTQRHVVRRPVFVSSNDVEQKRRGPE
Procedure: as §1, §2, §3

vesicle docking protein [7] = biological target: T9, vesicle docking protein (rat); assay: IP of RBL-2H3 lysate on nickel beads, MS/MS ProtScore; 1st value
T9 construct: Endogenous protein from RBL-2H3 (rat) lysate; a separate GenBank entry from gi 9507177
T9 sequence (P41542 whole entry): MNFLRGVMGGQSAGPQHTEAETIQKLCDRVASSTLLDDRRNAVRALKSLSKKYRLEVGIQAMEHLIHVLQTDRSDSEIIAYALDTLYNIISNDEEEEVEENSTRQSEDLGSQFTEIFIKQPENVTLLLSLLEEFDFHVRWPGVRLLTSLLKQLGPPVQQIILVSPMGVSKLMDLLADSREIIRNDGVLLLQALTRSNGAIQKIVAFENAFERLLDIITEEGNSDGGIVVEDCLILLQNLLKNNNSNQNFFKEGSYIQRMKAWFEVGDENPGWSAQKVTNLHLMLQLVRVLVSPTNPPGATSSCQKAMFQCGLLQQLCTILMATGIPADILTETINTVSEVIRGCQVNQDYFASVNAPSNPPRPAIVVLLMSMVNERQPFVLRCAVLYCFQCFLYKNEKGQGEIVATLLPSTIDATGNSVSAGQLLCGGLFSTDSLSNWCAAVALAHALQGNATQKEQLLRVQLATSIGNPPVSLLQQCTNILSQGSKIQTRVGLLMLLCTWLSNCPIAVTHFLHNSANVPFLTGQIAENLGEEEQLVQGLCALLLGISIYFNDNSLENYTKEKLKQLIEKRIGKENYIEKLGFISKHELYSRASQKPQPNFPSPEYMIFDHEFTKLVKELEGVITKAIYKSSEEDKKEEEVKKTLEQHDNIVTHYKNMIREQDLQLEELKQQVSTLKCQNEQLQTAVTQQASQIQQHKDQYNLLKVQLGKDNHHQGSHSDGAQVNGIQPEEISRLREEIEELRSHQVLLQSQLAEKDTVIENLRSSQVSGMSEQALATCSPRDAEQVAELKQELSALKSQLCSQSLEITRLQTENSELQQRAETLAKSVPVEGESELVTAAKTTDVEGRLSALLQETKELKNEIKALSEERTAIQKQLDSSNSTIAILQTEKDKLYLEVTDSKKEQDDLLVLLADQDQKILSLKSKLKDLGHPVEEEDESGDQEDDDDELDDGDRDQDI
Procedure: as §1, §2, §3

[8] = biological target: T10, PREDICTED: similar to myosin IG (rat); assay: as above
T10 construct: Endogenous protein from RBL-2H3 (rat) lysate
Procedure: as §1, §2, §3

[9] = biological target: T11, kinesin family member 20A (rat); assay: as above
T11 construct: Endogenous protein from RBL-2H3 (rat) lysate
Procedure: as §1, §2, §3

[10] = biological target: T12, adaptor-related protein complex 2, alpha 1 subunit (rat); assay: as above
T12 construct: Endogenous protein from RBL-2H3 (rat) lysate
Procedure: as §1, §2, §3

vesicle docking protein [11] = biological target: T9, vesicle docking protein; assay: IP of RBL-2H3 lysate on nickel beads, MS/MS ProtScore; 2nd value
Procedure: as §1, §2, §3

[12] = biological target: T10, PREDICTED: similar to myosin IG; assay: as above
Procedure: as §1, §2, §3

[13] = biological target: T11, kinesin family member 20A; assay: as above
Procedure: as §1, §2, §3

[14] = biological target: T12, adaptor-related protein complex 2, …; assay: as above
Procedure: as §1, §2, §3

B1: scFv 3H2-1 (scFv)
scFv: MAEVQLVESGGSLVKPGGSLRLSCAASGFTFSNYSMNWVRQAPGKGLEWISSISGSSRYIYYADFVKGRFTISRDNATNSLYLQMNSLRAEDTAVYYCVRPIAVSDYWGRGTLVTVSSGGGGSGGGGSGGGGSQSVLTQPASVSGSPGQSITISCAGTSSDVGGYNYVSWYQQHPGKAPKLMIYEDSKRPSGVSNRFSGSKSGNTASLTISGLQAEDEADYYCQTYDGSRAVFGGGTKLAVLGAAAEQKLISEEDLNGAA
notes: also called intracellular antibody 3H2-1; intrabody 3H2-1; not shown: C-terminal Myc tag and 6xHis tag from vector pET23NN
Protscore IP [1]: 4
Protscore IP [2]: 10
Protscore IP [3]: 51
Protscore IP (rCG30986, isoform CRA_a): 10
Protscore IP (CTP synthase): 7
Protscore IP [4]: 4
Protscore IP [5]: 10
Protscore IP [6]: 4

B2: 5H4-VH (other)
VH: MAEVQLVESGGSLVKPGGSLRLSCAASGFTFSNYSMNWVRQAPGKGLEWISSISGSSRYIYYADFVKGRFTISRDNATNSLYLQMNSLRAEDTAVYYCVRDGGLREGFDCWGRGTLVTVSSAAAEQKLISEEDLNGAA
notes: Single human-derived VH domain (truncated scFv, VH only) on the 13R4 framework; produced in E. coli, immobilised on nickel beads; also called 5H4-VH fragment; intracellular antibody 5H4-VH; not shown: C-terminal Myc tag and 6xHis tag from vector pET23NN
Protscore IP (vesicle docking protein [7]): 8
Protscore IP [8]: 8
Protscore IP [9]: 8
Protscore IP [10]: 15
Protscore IP (vesicle docking protein [11]): 5
Protscore IP [12]: 20
Protscore IP [13]: 10
Protscore IP [14]: 6
